Data published in IntAct's records for PubMed 31515488.

B1: Alpha-taxilin (Homo sapiens), P40222 (parent)
chain: MKNQDKKNGAAKQSNPKSSPGQPEAGPEGAQERPSQAAPAVEAEGPGSSQAPRKPEGAQARTAQSGALRDVSEELSRQLEDILSTYCVDNNQGGPGEDGAQGEPAEPEDAEKSRTYVARNGEPEPTPVVNGEKEPSKGDPNTEEIRQSDEVGDRDHRRPQEKKKAKGLGKEITLLMQTLNTLSTPEEKLAALCKKYAELLEEHRNSQKQMKLLQKKQSQLVQEKDHLRGEHSKAVLARSKLESLCRELQRHNRSLKEEGVQRAREEEEKRKEVTSHFQVTLNDIQLQMEQHNERNSKLRQENMELAERLKKLIEQYELREEHIDKVFKHKDLQQQLVDAKLQQAQEMLKEAEERHQREKDFLLKEAVESQRMCELMKQQETHLKQQLALYTEKFEEFQNTLSKSSEVFTTFKQEMEKMTKKIKKLEKETTMYRSRWESSNKALLEMAEEKTVRDKELEGLQVKIQRLEKLCRALQTERNDLNKRVQDLSAGGQGSLTDSGPERRPEGPGAQAPSSPRVTEAPCYPGAPSTEASGQTGPQEPTSARA
partner: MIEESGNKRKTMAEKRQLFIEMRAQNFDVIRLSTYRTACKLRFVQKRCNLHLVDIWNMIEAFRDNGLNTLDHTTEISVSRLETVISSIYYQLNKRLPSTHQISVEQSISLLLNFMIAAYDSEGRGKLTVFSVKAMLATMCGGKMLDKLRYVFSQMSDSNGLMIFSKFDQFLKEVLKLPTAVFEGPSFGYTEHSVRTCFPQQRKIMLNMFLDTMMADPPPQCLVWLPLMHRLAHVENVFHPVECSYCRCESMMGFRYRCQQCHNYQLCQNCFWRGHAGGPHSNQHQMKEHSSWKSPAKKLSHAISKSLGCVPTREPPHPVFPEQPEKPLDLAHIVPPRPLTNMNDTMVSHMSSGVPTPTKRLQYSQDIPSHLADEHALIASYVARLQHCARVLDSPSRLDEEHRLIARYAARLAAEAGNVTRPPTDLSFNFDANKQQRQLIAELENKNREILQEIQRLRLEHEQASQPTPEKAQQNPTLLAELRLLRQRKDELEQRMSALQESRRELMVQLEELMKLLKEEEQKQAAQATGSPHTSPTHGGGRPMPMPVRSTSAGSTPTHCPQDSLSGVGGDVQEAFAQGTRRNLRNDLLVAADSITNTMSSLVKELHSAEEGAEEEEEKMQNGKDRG
B2: Methanethiol oxidase (Homo sapiens), Q13228 (parent)
chain: MATKCGNCGPGYSTPLEAMKGPREEIVYLPCIYRNTGTEAPDYLATVDVDPKSPQYCQVIHRLPMPNLKDELHHSGWNTCSSCFGDSTKSRTKLVLPSLISSRIYVVDVGSEPRAPKLHKVIEPKDIHAKCELAFLHTSHCLASGEVMISSLGDVKGNGKGGFVLLDGETFEVKGTWERPGGAAPLGYDFWYQPRHNVMISTEWAAPNVLRDGFNPADVEAGLYGSHLYVWDWQRHEIVQTLSLKDGLIPLEIRFLHNPDAAQGFVGCALSSTIQRFYKNEGGTWSVEKVIQVPPKKVKGWLLPEMPGLITDILLSLDDRFLYFSNWLHGDLRQYDISDPQRPRLTGQLFLGGSIVKGGPVQVLEDEELKSQPEPLVVKGKRVAGGPQMIQLSLDGKRLYITTSLYSAWDKQFYPDLIREGSVMLQVDVDTVKGGLKLNPNFLVDFGKEPLGPALAHELRYPGGDCSSDIWI
partner: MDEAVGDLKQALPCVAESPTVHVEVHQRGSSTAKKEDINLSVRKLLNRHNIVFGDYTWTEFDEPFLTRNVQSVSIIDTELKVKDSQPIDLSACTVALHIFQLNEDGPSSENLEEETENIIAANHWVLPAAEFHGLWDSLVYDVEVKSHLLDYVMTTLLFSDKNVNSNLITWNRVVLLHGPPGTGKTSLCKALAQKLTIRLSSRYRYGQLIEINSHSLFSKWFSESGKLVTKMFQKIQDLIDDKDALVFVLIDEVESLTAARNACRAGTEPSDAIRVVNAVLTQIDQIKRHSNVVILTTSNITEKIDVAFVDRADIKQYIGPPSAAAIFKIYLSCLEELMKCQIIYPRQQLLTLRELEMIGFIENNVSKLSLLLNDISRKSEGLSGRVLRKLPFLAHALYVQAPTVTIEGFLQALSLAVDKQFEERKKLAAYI
B3: Dystrobrevin beta (Homo sapiens), O60941 (parent)
chain: B1 partner
partner: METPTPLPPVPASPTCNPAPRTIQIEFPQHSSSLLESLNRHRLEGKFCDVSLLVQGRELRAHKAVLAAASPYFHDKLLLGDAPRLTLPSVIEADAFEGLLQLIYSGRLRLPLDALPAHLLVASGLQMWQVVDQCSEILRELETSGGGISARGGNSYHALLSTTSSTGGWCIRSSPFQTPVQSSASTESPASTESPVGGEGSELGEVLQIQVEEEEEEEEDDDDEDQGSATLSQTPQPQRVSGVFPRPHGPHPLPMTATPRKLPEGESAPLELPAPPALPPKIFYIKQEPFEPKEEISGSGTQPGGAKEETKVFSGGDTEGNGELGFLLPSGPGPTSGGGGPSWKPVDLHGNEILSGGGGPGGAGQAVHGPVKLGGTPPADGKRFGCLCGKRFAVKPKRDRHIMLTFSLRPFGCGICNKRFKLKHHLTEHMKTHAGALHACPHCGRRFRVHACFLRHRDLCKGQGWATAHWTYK
B4: Ribosomal RNA-processing protein 7 homolog A (Homo sapiens), Q9Y3A4 (parent)
chain: MVARRRKCAARDPEDRIPSPLGYAAIPIKFSEKQQASHYLYVRAHGVRQGTKSTWPQKRTLFVLNVPPYCTEESLSRLLSTCGLVQSVELQEKPDLAESPKESRSKFFHPKPVPGFQVAYVVFQKPSGVSAALALKGPLLVSTESHPVKSGIHKWISDYADSVPDPEALRVEVDTFMEAYDQKIAEEEAKAKEEEGVPDEEGWVKVTRRGRRPVLPRTEAASLRVLERERRKRSRKELLNFYAWQHRESKMEHLAQLRKKFEEDKQRIELLRAQRKFRPY
B5: Tektin-4 (Homo sapiens), Q8WW24 (parent)
chain: MAQTVPPCELPCKEYDVARNTGAYTSSGLATASFRTSKYLLEEWFQNCYARYHQAFADRDQSERQRHESQQLATETQALAQRTQQDSTRTVGERLQDTHSWKSELQREMEALAAETNLLLAQKQRLERALDATEVPFSITTDNLQCRERREHPNLVRDHVETELLKEAELIRNIQELLKRTIMQAVSQIRLNREHKETCEMDWSDKMEAYNIDETCGRHHSQSTEVQAHPYSTTFQESASTPETRAKFTQDNLCRAQRERLASANLRVLVDCILRDTSEDLRLQCDAVNLAFGRRCEELEDARYKLHHHLHKTLREITDQEHNVAALKQAIKDKEAPLHVAQTRLYLRSHRPNMELCRDAAQFRLLSEVEELNMSLTALREKLLEAEQSLRNLEDIHMSLEKDIAAMTNSLFIDRQKCMAHRTRYPTILQLAGYQ

Variants of: B1
Details: with dtnb_human DTNB

effect of a mutation on the interaction	Variant
disrupting interaction strength	R154G

Variants of: B2
Details: with pch2_human TRIP13, Q15645

effect of a mutation on the interaction	Variant
with no effect	R211Q

Variants of: B3
Details: with zbtb9_human ZBTB9, Q96C00

effect of a mutation on the interaction	Variant
with no effect	R80H

Variants of: B4
Details: with tfp11_human TFIP11, Q9UBB9
Chain of tfp11_human TFIP11, Q9UBB9 (Q9UBB9 whole entry): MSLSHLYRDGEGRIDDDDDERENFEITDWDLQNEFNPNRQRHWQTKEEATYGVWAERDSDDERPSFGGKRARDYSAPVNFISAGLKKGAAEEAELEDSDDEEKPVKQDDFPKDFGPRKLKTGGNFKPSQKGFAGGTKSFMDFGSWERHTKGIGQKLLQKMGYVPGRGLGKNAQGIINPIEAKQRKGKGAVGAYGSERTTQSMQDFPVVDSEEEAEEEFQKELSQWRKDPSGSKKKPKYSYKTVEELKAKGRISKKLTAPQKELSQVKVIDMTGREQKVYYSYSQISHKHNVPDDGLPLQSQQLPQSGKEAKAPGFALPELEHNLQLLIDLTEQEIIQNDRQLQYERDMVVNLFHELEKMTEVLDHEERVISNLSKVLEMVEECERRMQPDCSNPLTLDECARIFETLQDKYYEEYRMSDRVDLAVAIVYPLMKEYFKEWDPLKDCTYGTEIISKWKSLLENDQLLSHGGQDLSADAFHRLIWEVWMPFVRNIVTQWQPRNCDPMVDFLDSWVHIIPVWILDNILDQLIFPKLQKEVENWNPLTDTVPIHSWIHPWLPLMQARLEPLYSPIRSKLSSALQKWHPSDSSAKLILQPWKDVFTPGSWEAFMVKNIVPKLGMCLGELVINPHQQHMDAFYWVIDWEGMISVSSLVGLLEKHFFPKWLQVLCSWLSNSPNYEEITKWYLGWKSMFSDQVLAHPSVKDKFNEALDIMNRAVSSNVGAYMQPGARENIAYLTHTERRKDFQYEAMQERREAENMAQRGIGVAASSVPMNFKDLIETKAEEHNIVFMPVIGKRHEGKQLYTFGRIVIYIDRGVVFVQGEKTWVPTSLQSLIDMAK

effect of a mutation on the interaction	Variant
disrupting interaction strength	L75M
with no effect	V85I

Variants of: B5
Details: with atg5_human ATG5, Q9H1Y0
Chain of atg5_human ATG5, Q9H1Y0 (Q9H1Y0 whole entry): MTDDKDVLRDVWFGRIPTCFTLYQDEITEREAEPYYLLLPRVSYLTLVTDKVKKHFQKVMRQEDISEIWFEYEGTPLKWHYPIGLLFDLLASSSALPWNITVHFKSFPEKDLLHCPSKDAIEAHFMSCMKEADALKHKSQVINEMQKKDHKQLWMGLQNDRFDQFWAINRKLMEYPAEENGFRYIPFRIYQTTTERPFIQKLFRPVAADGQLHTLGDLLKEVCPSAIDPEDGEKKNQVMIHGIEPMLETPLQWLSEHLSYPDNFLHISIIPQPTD

effect of a mutation on the interaction	Variant
disrupting interaction strength	I404T
with no effect	R82C
with no effect	R255C
with no effect	M374V
with no effect	M374T

Variants of: B5
Details: with trip6_human TRIP6, Q15654
Chain of trip6_human TRIP6, Q15654 (Q15654 whole entry): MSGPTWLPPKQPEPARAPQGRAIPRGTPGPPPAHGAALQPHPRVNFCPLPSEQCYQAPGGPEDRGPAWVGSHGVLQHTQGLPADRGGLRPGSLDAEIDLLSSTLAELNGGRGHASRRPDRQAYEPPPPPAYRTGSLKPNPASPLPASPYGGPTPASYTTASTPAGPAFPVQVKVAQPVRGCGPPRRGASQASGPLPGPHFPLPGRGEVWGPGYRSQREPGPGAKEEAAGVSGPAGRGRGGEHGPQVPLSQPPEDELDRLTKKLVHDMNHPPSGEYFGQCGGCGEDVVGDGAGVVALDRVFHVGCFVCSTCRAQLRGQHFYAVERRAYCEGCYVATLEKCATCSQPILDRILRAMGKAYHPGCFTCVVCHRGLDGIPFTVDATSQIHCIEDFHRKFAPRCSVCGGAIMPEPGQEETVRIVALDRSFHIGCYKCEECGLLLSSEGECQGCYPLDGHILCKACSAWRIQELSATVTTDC

effect of a mutation on the interaction	Variant
with no effect	R82C
with no effect	T83M
with no effect	C272S
with no effect	R255C
with no effect	R64W
with no effect	M374V

Variants of: B5
Details: with maga4_human MAGEA4, P43358
Chain of maga4_human MAGEA4, P43358 (P43358 whole entry): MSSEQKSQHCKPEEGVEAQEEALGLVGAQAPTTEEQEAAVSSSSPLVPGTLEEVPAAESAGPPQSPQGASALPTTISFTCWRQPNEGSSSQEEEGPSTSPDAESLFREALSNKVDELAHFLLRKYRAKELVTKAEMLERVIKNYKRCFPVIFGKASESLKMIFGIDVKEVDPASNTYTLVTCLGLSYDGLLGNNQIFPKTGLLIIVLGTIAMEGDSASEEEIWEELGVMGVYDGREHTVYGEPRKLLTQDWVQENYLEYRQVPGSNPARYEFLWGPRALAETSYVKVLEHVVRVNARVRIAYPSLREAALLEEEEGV

effect of a mutation on the interaction	Variant
with no effect	R82C
with no effect	T83M
with no effect	C272S
with no effect	R255C
with no effect	R64W
with no effect	M374V
